Test results as given in the nanobody polyreactivity screen of Harvey et al. (2022).

assay: yeast display, Sf9 membrane polyspecificity reagent, FACS + sequencing; frameworks hold sequencing errors
Outline: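 A synthetic nanobody library was expressed on Saccharomyces cerevisiae BJ5465 by galactose induction for 36–48 hours. The library was stained for 1 hour at 4 °C with 10% biotinylated, detergent-solubilized Sf9 membrane reagent and enriched with streptavidin microbeads before FACS. Low and high (top ~1%) gates were set on anti-HA fluorescence for expression and streptavidin fluorescence for reagent binding, and each polyreactivity label reflects the gate of origin.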

| Sequence | polyreactivity (PSR sort gate) |
| --- | --- |
| QVQLGESGGGLVQAGGSLRLSCAASGFIFSYNAMGWYRQAPWKERELVAAISWRGGSTYYADSVKGRFTISRDNAKNTVYLQMNSLKPEDTAVYYCAAYLWRLWPSGYYYWGQGTQVTVSS | high polyreactivity |
| QVQLGESGGGLVQAGGSLRLSCAASGFIFYVYAMGWYRQAPGKERELVAAISWSGDRTYYADSVKGRFTISRDNAKNTVYLQINSLKPEDTAVYYCAVERSVYSYYYWGQGTQVTVSS | high polyreactivity |
| QVQLGESGGGLVQAGGSLRLSCAASGFPFQGNAMGWSRQAPGKERELLAAISYDGGSSYYADSVKGRFTISRDNAKNTVYLQMNSLKPEDTAVYYCAAYVVTWYYYWGQGTQVTLSS | high polyreactivity |
| QVQLGESGGGLVQAGGSLRLSCAASGFTFAYYAMGWYRQAPGKERELVAAISERGGSTYYADSVKGRFTISRDNAKNTVYLQMNILKPEDTAVYYCARTFWDYPWYQSSYYSWGQGTQVTLSS | low polyreactivity |
| QVQLGESGGGLVQAGGSLRLSCAASGFTFPVYAMGWYRQAPGKERELVAAISTSAGSTYYADSVKGRFTISRDNAKNTVYLQMNSLKPEDTAVYYCAARRRAFGSTYNYWGQGTQVTVSS | high polyreactivity |
| QVQLGESGGGLVQAGGSLRLSCAASGGIINYYAMGWYRQAPGKEWELVAAITSAGSTYADSVKGRFTISRDNAKNTVYLQMNSLKPDDSAVYYCNAVGFVLKVGYYLIGYAKWYDYWGQGTHVTVSS | low polyreactivity |
| QVQLGESGGGLVQAGGSLRLSCAASGIIFRYYAMGWYRQAPGKERELVAAISSSGVSTYYADSVKGRFTISRDNAQNTVYLQMNSLKPEDTAVYYCAAVTTWRMDYWGQGTQVTVSS | high polyreactivity |
| QVQLGESGGGLVQAGGSLRLSCAASGITFRWYAMGWYRQAPGKERELVAAITSVDSTDYADSVKGRFTISRDNAKNTVYLQMNSLKPEDTAVYYCAAQPYDWFYYYYVIFPHYEYWGQGTQVTVSS | low polyreactivity |
| QVQLGESGGGLVQAGGSLRLSCAASGNIFYANAMGWSRQAPGTERELLAAISGSGGSTYADSVKGRFTISRDNAKNTVYLQMNSLKPVDTAVYYCNASVLDAIFYKSVGYDYWGQGTQVTVSS | low polyreactivity |
| QVQLGESGGGLVQAGGSLRLSCAASGRIFPWNTMGWYRQAPGKERELVAGITSGGSTNYADSVKGRFTISRDNAKNTVYLLMNCLKPEATAVYYCAARGYYWYISGVYEYEYWGQGTQVTLSS | low polyreactivity |
| QVQLGESGGGLVQAGGSLRLSCAASGRTFGLYAMGWYRQAPGKERELVAAISRGTSTNYADSVKGRFTISRDNAKNTVYLEMYSLKPEDTAVYYCNARRKFVGKWGDYWGQGTQVTVSS | low polyreactivity |
| QVQLGESGGGLVQAGGSLRLSCAASGRTFGYNAIGWYRQAPGKEMELVAVIRSGGSTYYADSVKGRFTISRDNAKNTVYLQMNSLKPEDTAVYYCNADVLPTWYSPELDYWGQGTQVTVSS | low polyreactivity |
| QVQLGESGGGLVQAGGSLRLSCAASGRTFYGYPMGWYRQAPGKERELVAAISRNGASTFYADSVKGRFTISRDNAKNTVYLQMNSLKPEDTAVYYCNARSWRHTDTSFEYWGQGTQVTVSS | high polyreactivity |
| QVQLGESGGGLVQAGGSLRLSCAASGRTFYINTMGWYRQAPGKEREFVAAISSGGGRTYYADSVKGRFTISRDNAKNTVYLQMNSLKPEDTAVYYCAAYLGGAEDTYRFGYWGQGTQVTVSS | high polyreactivity |
| QVQLGESGGGLVQAGGSLRLSCAASGRTIGYYAMGWYRQAPGKERELVAAISVSGTNTYYADSVKGRFTISRDNAKNTVNLQMNSLKPEDTAVYYCAARKVSGVYRAFYYWGQGTQVTVSS | high polyreactivity |
| QVQLGESGGGLVQAGGSLRLSCAASGRTITRNAMGWYRQAPGKERELVAAISYSGGSTYYADSVKGRFTISRDNAKNTVYLQMNSLKPEDTAVYYFNAATSRRSIRYDYWGQGTQVTVSS | high polyreactivity |
| QVQLGESGGGLVQAGGSLRLSCAASGSIFGGNTKGWYRQAPGKERELVAAINGGVTTNYADSVKGRFTISRDNAKNTVYLQMNSLKPEDTAVYYCNAVDFGPVVLRLYYWGQGTQVTVSS | low polyreactivity |
| QVQLGESGGGLVQAGGSLRLSCAASGSIFQKYTMGWYRQAPGKERELVAAITRSGGSTYYADSVKGRFTISRDNAKNTVDFQMNSLKPEDTAVYYCAAPAAGDEYDYWGQVTQVTVSS | high polyreactivity |
| QVQLGESGGGLVQAGGSLRLSCAASGSIFTYNPMGWYRQAPGKERELVAAITIDDGSTYYADSVKGRFTISRDNAKNTVYLQMNSLKPEDTAVYYCAADFYGVSYSGGEMDYWGLGTQVTVSS | low polyreactivity |
| QVQLGESGGGLVQAGGSLRLSCAASGSIFYFNAMGWYRQAPGKERELVAAISWSGRTYYADSVKGRFTISRDNAKNTVYLQMNSLKPEDTAVFYCAAKNTGRYYWGQGTQVTVSS | high polyreactivity |
| QVQLGESGGGLVQAGGSLRLSCAASGSILTPYSMGWYRQAPGKERELDAAITFRGGSTYYADSVKGRFTISRDNAKNTVYLQMNSLKPEDTAVYYCAAGWYWSYWDPYDYWGQGTQVTVSS | high polyreactivity |

| Sequence | polyreactivity (PSR sort gate) |
| --- | --- |
| QVQLGESGGGLVQAGGSLRLSCAASGSTFYYYAMGWYRQAPGKERELVASINYSAGRTYYADSVKGRFTISRDNAKNTVYLQMNSLKPEDTAVYYCAAETPSGYYPQQYDYYWGQGTQVTVSS | high polyreactivity |
| QVQLGESGGGLVQAGGSLRLSCAGSGRTFQHYFMGWYREAPGKDRELVASITNDDSTNYADSVKGLFTISRDNAKNTVYLQMNRLKPEDTAVYYCAADWTDVVPGYDYWGQGTQVTVSS | low polyreactivity |
| QVQLGESGGGLVQAGGSLRLSCAPSGNPFTIYAMGWYRPAPGKERELVASSTGRGGSTYYADSVKGRFTISRDNEKNTVYLQMNSLKPEDTAVDYCNADYNSYLYRPPTTRDYWGQGTQVTVSS | low polyreactivity |
| QVQLGESGGGLVQAGGSLRLSCASSGRTFVVNAMGWYSQAPGKATEFDAAISYRGDSTYYAVSVKGRFTISRDNAKNTVYLQMNSLKPEATAVYYCAARVLGPGRRYYYWGQCTQVTVSS | high polyreactivity |
| QVQLGESGGGLVQAGGSLRLTCAASGLIFYRNARGWYRQAPGKERELVAAISKNGGNTYYADSVKGRFTISRDYAKNTVYLQMNSLKPEDTAVYYCAARELYGPFGYWGQGTQVTVSS | high polyreactivity |
| QVQLGESGGGLVQAGGSLRLTCAASGSIFSIYAMGWYIQAPGKERELVAAIDSGTSTTYADSVKGRFTISRDNAKYTVYLQMYSLKPEDTAVYYCAAALYSDVASVATYGYYWGQGTQVTVSS | low polyreactivity |
| QVQLGESGGGLVQAGGSVRLSCAASGGTFGWYAMGWYRPAPGKERELVAAITSSGGTTFDADSVKGRFTISRDNAKNTVYLQMNSLKPEDTAVYYCAKRGQRPTRYKLGKYDYWGQGTQVTVSS | high polyreactivity |
| QVQLGESGGGLVQAGVSLRLSCAASGRTFGSYAMGWYRQAPGKESEMVAVISWSGGITYYADSVKGRFTISRDNAKNTVYLQMNSLKPEDTAVYYCAASPRRDENAGRVRLYYWGQGTQVTVSS | high polyreactivity |
| QVQLGESGGGLVQAVGSLRLSCAASGITFGENAMGWSRQADGKERELVAAITSGGSTDYADSVKGRFTISRDNAKNSVYLQMYCLKPEDTAVYYWAAEAVAYYGSSYGYWGQGTQVTVSS | low polyreactivity |
| QVQLGESGGVLVQAGGSLRLICAACGSTFSYYTMGWYRKAPGKEREVVAVIYTSGGNTYYADSVKGRFTISRDNAKNTVYLQMNSLKPEDTAVYYCAARWYGRGRYEYWGQGTQVTVSS | high polyreactivity |
| QVQLGESGGVLVQEGGSLRLSSAASGSILSKYAIGWYRQAPGKERELVAVITSNSGRKYYADYLKGRFTISRDNAKNTVYLQMNSLKPEDTAVYYCAAQRRSSQNYYWGQGTQVTVSS | high polyreactivity |
| QVQLGESVGGLVQAGGSLRLSCAASGFIIGYYAMGWYRPPPGTERELVAAISSTGGSTYYADSVKGRFTISRDNAKNTVYLQMNSLNPEDTAVYYCAKRFASYRYHPGYDYWGQGTQVTVSS | high polyreactivity |
| QVQLHESGGGLVQAGGGLRLSCAASGSISSTGFMGWYRQAPGKEREPVAAIAPGTTTYYADSVKGRFTISRDNAKNTVYLQMNSLRPEDTAVFYCAVFTDNRVSFRYWGQGTQVTVSS | low polyreactivity |
| QVQLHESGGGLVQAGGSLLSCAASGTISYYREMGWYRQAPGKERELVAGIGVGTITYYADSVKGRFTISRDNAKNTVYLHMNSLKPEDTAVYYCAAHFDGNDSHAYWGQGTQVTVSS | low polyreactivity |
| QVQLHESGGGLVQAGGSLRLSCAASGSISAVGAMGWNRQPPGKEREFAASVNWGTNTNYADSVKGRFTFSRDNAKNTLYLQMNSLKPEDTGVYYCAVLPDWETRHDYWGHGTQVTVSS | low polyreactivity |
| QVQLHESGGGLVQAGGSLRLSCAASGTISYAGPMGWYRQAPGKEREFVAGIGVGSNTNYADSVKGRYTIIRDNAKNTVYLQMNSLKPEDTAVYYCAVGGYAPLGRPYWGQGTQVTVCS | low polyreactivity |
| QVQLHESGGGLVQAGGSLRLSCAASGTITDSGLMGWYRQAPGKERELVAGISSGGITNYADSVKGRFTISRDNAKNTVYLQMNSLKPEDTAVYWGQGTQVTVSS | low polyreactivity |
| QVQLHESGGGLVQAGGSQRLSCASSGYIFYFQYMGWYRQAPGKEREFVAAISDGANTNYADSVKGRFTISRDNAKNTEYLQMNSLKPEDTAVYYCNADQYYWYEYDYWGQGTQVTVSS | low polyreactivity |
| QVQLHESGGGLVQVGGSQRLSCAASGNIFYNYAMGWYRHAQGKEREFDATINHGTSINYADSVKGRFTISRDNAKNTVYLQMNSLKPEDTAVYYCAADLSWTDNLFYWGQGTQVTVSS | low polyreactivity |
| QVQLHGSGGGLVQAGCSLRVSCAASGYIFQNVPMGWTRQAPGKERELVAGIDNGTSTNYADSVNGRFTISRDNAKNTVYMQMNSLKPEDTAVYYCAAAGQADDTLGYWGQGTQVTVSS | low polyreactivity |
